Assay results reported in patent publication US5710022, “Nuclear mitotic phosphoprotein” (Board of Regents of the University of Texas System, dated 1998).

Assays:
[1] = target: T1, purified p56-RB (Homo sapiens (Human), UniProt P06400); assay: blot of purified MBP fusion proteins probed with the Rb-sandwich; the faint band in lane 3 is called an artifact in paragraph 24
T1 sequence: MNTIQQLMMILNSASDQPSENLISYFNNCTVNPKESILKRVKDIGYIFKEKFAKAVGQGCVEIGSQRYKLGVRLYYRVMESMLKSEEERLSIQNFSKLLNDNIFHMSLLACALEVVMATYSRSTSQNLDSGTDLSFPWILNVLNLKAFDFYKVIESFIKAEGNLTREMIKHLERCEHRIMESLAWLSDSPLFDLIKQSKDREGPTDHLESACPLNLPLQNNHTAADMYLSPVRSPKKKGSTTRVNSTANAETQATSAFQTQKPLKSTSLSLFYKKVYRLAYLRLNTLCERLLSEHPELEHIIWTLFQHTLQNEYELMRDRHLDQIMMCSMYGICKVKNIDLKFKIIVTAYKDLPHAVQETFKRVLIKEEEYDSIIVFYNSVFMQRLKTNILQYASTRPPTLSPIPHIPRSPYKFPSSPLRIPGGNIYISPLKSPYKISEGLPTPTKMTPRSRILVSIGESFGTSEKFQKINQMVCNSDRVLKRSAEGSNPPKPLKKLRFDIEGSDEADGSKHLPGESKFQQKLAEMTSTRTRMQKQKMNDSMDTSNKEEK
Text: (§1) (A) Two identical blots containing seven purified MBP fusion proteins were probed with either the "Rb-sandwich" (lanes 1–7) or with an antibody to MBP (New England Biolabs) (lanes 8–14). […] (B) Similarly, two identical blots of the purified GST-fusion proteins were probed with either the "Rb-sandwich" (lanes 15–17) or with an antibody to GST (lanes 18–20). […] (C) A diagram of the different constructs used in this experiment. […] (D) Sequence comparison of the Rb-binding region of mitosin with the Rb-binding domain of E2F-1 (in bold letters) and neighboring residues (SEQ. ID NOS: 3 and 4). […] Dashed lines indicate conserved residues and solid lines indicate identical residues.

[2] = target: T1, purified p56-RB; assay: blot of purified MBP fusion proteins probed with the Rb-sandwich
[3] = target: T1, purified p56-RB; assay: blot of purified GST fusion proteins probed with the Rb-sandwich (figure legend)
Text: as §1

Row | Binder | binding result [2] | other results
1 | MBP-10/H (other) LLQGLDEAKNNYIVLQSSVNGLIQEVEDGKQKLEKKDEEISRLKNQIQDQEQLVSKLSQVEGEHQLWKEQNLELRNLTVELEQKIQVLQSKNASLQDTLEVLQSSYKNLENELELTKMDKMSFVEKVNKMTAKETELQREMHEMAQKTAELQEELSGEKNRLAGELQLLLEEIKSSKDQLKELTLENSELKKSLDCMHKDQVEKEGKVREEIAEYQLRLHEAEKKHQALLLDTNKQYEVEIQTYREKLTSKEECLSSQKLEIDLLKSSKEELNNSLKATTQILEELKKTKMDNLKYVNQLKKENERAQGKMKLLIKSCKQLEEEKEILQKELSQLQAAQEKQKTGTVMDTKVDELTTEIKELKETLEEKTKEADEYLDKYCSLLISHEKLEKAKEMLETQVAHLCSQQSKQDSRGSPLLGPVVPGPSPIPSVTEKRLSSGQNKA | – | binding result [1]: no binding
2 | MBP-10 (other) LLQGLDEAKNNYIVLQSSVNGLIQEVEDGKQKLEKKDEEISRLKNQIQDQEQLVSKLSQVEGEHQLWKEQNLELRNLTVELEQKIQVLQSKNASLQDTLEVLQSSYKNLENELELTKMDKMSFVEKVNKMTAKETELQREMHEMAQKTAELQEELSGEKNRLAGELQLLLEEIKSSKDQLKELTLENSELKKSLDCMHKDQVEKEGKVREEIAEYQLRLHEAEKKHQALLLDTNKQYEVEIQTYREKLTSKEECLSSQKLEIDLLKSSKEELNNSLKATTQILEELKKTKMDNLKYVNQLKKENERAQGKMKLLIKSCKQLEEEKEILQKELSQLQAAQEKQKTGTVMDTKVDELTTEIKELKETLEEKTKEADEYLDKYCSLLISHEKLEKAKEMLETQVAHLCSQQSKQDSRGSPLLGPVVPGPSPIPSVTEKRLSSGQNKASGKRQRSSGIWENGGGPTPATPESFSKKSKKAVMSGIHPAEDTEGTEFEPEGLPEVVKKGFADIPTGKTSPYILRRTTMATRTSPRLAAQKLALSPLSLGKENLAESSKPTAGGSRSQKVKVAQRSPVDSGTILREPTTKSVPVNNLPERSPTDSPREGLRVKRGRLVPSPKAGLESKGSENCKVQ | binds | –
3 | MBP-T antigen (other) MDKVLNREESLQLMDLLGLERSAWGNIPLMRKAYLKKCKEFHPDKGGDEEKMKKMNTLYKKMEDGVKYAHQPDFGGFWDATEIPTYGTDEWEQWWNAFNEENLFCSEEMPSSDDEATADSQHSTPPKKKRKVEDPKDFPSELLSFLSHAVFSNRTLACFAIYTTKEKAALLYKKIMEKYSVTFISRHNSYNHNILFFLTPHRHRVSAINNYAQKLCTFSFLICKGVNKEYLMYSALTRDPFSVIEESLPGGLKEHDFNPEEAEETKQVSWKLVTEYAMETKCDDVLLLLGMYLEFQYSFE | binds | –
4 | MBP-10/KN (other) LAGELQLLLEEIKSSKDQLKELTLENSELKKSLDCMHKDQVEKEGKVREEIAEYQLRLHEAEKKHQALLLDTNKQYEVEIQTYREKLTSKEECLSSQKLEIDLLKSSKEELNNSLKATTQILEELKKTKMDNLKYVNQLKKENERAQGKMKLLIKSCKQLEEEKEILQKELSQLQAAQEKQKTGTVMDTKVDELTTEIKELKETLEEKTKEADEYLDKYCSLLISHEKLEKAKEMLETQVAHLCSQQSKQDSRGSPLLGPVVPGPSPIPSVTEKRLSSGQNKASGKRQRSSGIWENGGGPTPATPESFSKKSKKAVMSGIHPAEDTEGTEFEPEGLPEVVKKGFADIPTGKTSPYILRRTTMATRTSPRLAAQKLALSPLSLGKENLAESSKPTAGGSRSQKVKVAQRSPVDSGTILREPTTKSVPVNNLPERSPTDSPREGLRVKRGRLVPSPKAGLESKGSENCKVQ | binds | –
5 | MSGIHPAEDTEGTEFEPEGLPEVVKKGFADIPTGKTSPYILRRTTM (other) [GST-1045] | – | binding result [3]: binds
6 | MBP-10/NI (other) LGPVVPGPSPIPSVTEKRLSSGQNKASGKRQRSSGIWENGGGPTPATPESFSKKSKKAVMSGIHPAEDTEGTEFEPEGLPEVVKKGFADIPTGKTSPYILRRTTMATRTSPRLAAQKLALSPLSLGKENLAESSKPTAGGSRSQKVKVAQRSPVDSGTILREPTTKSVPVNNLPERSPTDSPREGLRVKRGRLVPSPKAGLESKGSENCKVQ | binds | –
7 | MBP-10/NB (other) LLQGLDEAKNNYIVLQSSVNGLIQEVEDGKQKLEKKDEEISRLKNQIQDQEQLVSKLSQVEGEHQLWKEQNLELRNLTVELEQKIQVLQSKNASLQDTLEVLQSSYKNLENELELTKMDKMSFVEKVNKMTAKETELQREMHEMAQKTAELQEELSGEKNRLAGELQLLLEEIKSSKDQLKELTLENSE | no binding | –
